This note sets out measurements from PMC7849366 (Genes & Development, 2021).

The test deals with full-length recombinant MYC-KEAP1 (human, UniProt Q14145 1-624). Description: pull-down.
full-length recombinant MYC-KEAP1, sequence (Q14145 whole entry): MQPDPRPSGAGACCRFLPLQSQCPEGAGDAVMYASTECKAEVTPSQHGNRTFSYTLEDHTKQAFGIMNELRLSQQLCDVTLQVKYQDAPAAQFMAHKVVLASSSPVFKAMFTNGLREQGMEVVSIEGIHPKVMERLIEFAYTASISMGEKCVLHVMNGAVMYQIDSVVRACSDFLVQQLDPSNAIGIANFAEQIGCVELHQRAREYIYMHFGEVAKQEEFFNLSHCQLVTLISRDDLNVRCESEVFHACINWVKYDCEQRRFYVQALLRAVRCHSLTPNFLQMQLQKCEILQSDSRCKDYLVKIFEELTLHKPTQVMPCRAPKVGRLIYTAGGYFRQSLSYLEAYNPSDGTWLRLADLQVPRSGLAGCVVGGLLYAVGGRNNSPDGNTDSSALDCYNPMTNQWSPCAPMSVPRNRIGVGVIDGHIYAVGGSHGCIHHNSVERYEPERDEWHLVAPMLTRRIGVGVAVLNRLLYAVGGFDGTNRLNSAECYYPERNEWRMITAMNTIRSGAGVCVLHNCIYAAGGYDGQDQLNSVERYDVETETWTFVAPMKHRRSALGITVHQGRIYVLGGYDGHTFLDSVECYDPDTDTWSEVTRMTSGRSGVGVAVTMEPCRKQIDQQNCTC

B1: full-length recombinant GST-ATDC (natural protein)
chain: MEAADASRSNGSSPEARDARSPSGPSGSLENGTKADGKDAKTTNGHGGEAAEGKSLGSALKPGEGRSALFAGNEWRRPIIQFVESGDDKNSNYFSMDSMEGKRSPYAGLQLGAAKKPPVTFAEKGELRKSIFSESRKPTVSIMEPGETRRNSYPRADTGLFSRSKSGSEEVLCDSCIGNKQKAVKSCLVCQASFCELHLKPHLEGAAFRDHQLLEPIRDFEARKCPVHGKTMELFCQTDQTCICYLCMFQEHKNHSTVTVEEAKAEKETELSLQKEQLQLKIIEIEDEAEKWQKEKDRIKSFTTNEKAILEQNFRDLVRDLEKQKEEVRAALEQREQDAVDQVKVIMDALDERAKVLHEDKQTREQLHSISDSVLFLQEFGALMSNYSLPPPLPTYHVLLEGEGLGQSLGNFKDDLLNVCMRHVEKMCKADLSRNFIERNHMENGGDHRYVNNYTNSFGGEWSAPDTMKRYSMYLTPKGGVRTSYQPSSPGRFTKETTQKNFNNLYGTKGNYTSRVWEYSSSIQNSDNDLPVVQGSSSFSLKGYPSLMRSQSPKAQPQTWKSGKQTMLSHYRPFYVNKGNGIGSNEAP
In general, Kd refers to the constant that tells how readily two partners part at equilibrium. As for B1, the Kd was found to be 2.87 nM.
